We go through 2 molecules from US9738726B2, “HER2-specific monoclonal antibodies and conjugates thereof” (The United States of America, as represented by the …, priority 2013, dated 2017).

As a reminder, the Kd is a measure of binding affinity in units of concentration.

“Also recorded” adds a separate entry of the source. Where a SMILES comes first, the peptide text is derived from it. [ ]: non-standard residue; d: D form. The star is where a group is joined. ξ: configuration not given here. Dolaproine = CO[C@@H]([C@@H]1CCCN1)[C@@H](C)C(=O)O; Dil = CC[C@H](C)[C@H](NC)[C@@H](CC(=O)O)OC; NMe2Val = CC(C)[C@@H](C(=O)*)N(C)C; ξV = CC(C)C(N)C(=O)O; X1 = NOCCOCCOCCN*

Series [1] relates to MCF-7 cells (do not express Her2). Briefly: In vitro cytotoxicity assay, MCF-7 cells. Format: cell-based. Particulars: 72 hours, FIG. 7B. The method, then: (§1) In Vitro Cytotoxicity Assay
(§2) SKBR3, MCF-7 and JIMT-1 cells were cultured and assayed in DMEM (Life Technologies) with 10% (vol/vol) FBS (Gibco), 100 IU/mL penicillin, and 100 µg/mL streptomycin (Life Technologies). For the cytotoxicity assays, the cancer cell lines were plated in 96-well plates at ˜1,000 cells in 70 μL per well in culture medium and incubated overnight at 37° C. and 5% CO2. Drugs (m860 IgG1, m860 ADC and free drug nAF) were filtered (0.22 μm; Millipore) and 30 μl of serially diluted drugs in culture medium were added into the wells in duplicate and incubated at 37° C. for 72 hours. Colorimetric reagent (Promega) was then added to each well. After a 3-hour incubation at 37° C., the absorbance at 490 nm was measured, and IC50 was determined by GraphPad Prism.

For another series, the target named is FcγRI (CD64) (Homo sapiens, UniProt P12314). Briefly: Surface plasmon resonance (Biacore) binding to FcγRI (CD64). Particulars: SPR, FcγRI immobilized on CM5 chip, 25° C., 1:1 model. The method, then:
(§3) Comparison of the Binding Affinities of m860 and m860 ADC to FcγRIII (CD16) and FcγRI (CD64) Measured by Surface Plasmon Resonance
(§4) Interactions between the antibodies and CD16 and CD64 were analyzed by surface plasmon resonance technology using a Biacore™ X100 instrument (GE healthcare). CD16 or CD64 was covalently immobilized onto a sensor chip (CM5) using carbodiimide coupling chemistry. A control reference surface was prepared for nonspecific binding and refractive index changes. For analysis of the kinetics of interactions, varying concentrations of antibodies were injected at flow rate of 30 μL/min using running buffer containing 10 mmol/L HEPES, 150 mmol/L NaCl, 3 mmol/L EDTA, and 0.05% Surfactant P-20 (pH=7.4). The association and dissociation phase data were fitted simultaneously to a 1:1 model by using BIAevaluation 3.2. All the experiments were done at 25° C.
Background: Surface plasmon resonance follows binding to a sensor surface in real time, without labels.

Another series addresses FcγRIII (CD16). Briefly: Surface plasmon resonance (Biacore) binding to FcγRIII (CD16). The settings on record: SPR, FcγRIII immobilized on CM5 chip, 25° C., 1:1 model. The method, then: as §3, §4
The target in another series is T1, Her2 on SKBR3 cells (Homo sapiens, UniProt P04626).
T1 construct: SKBR3 breast cancer cells, which overexpress Her2, were detached in cell dissociation buffer; endogenous in cells; host or cells: SKBR3 breast cancer cells
Briefly: Flow cytometry binding to Her2 on SKBR3 cells. Particulars: FIGS. 6A-6B. For orientation: A flow cytometer gives signals particle by particle.

The test system of series [2] is SKBR3 cells (overexpress Her2). Briefly: In vitro cytotoxicity assay, SKBR3 cells. The settings on record: 72 hours, FIG. 7A, listed as WT m860 IgG1. Format: cell-based. How it is done:
as §1, §2

The subject of series [3] is JIMT-1 cells (moderate Her2 expression, trastuzumab-resistant patient). Briefly: In vitro cytotoxicity assay, JIMT-1 cells. In kind it is cell-based. The settings on record: 72 hours, FIG. 7C. How it is done: as §1, §2
For series [4], the target named is T2, cell surface-associated Her2 (Homo sapiens, UniProt P04626).
T2 construct: endogenous in cells
Briefly: Binding to cell surface-associated Her2. The settings on record: compared with trastuzumab (Herceptin).

Another series has as its target Her2 (Homo sapiens, UniProt P04626). Briefly: Competition with Herceptin / epitope comparison. In kind it is binding.
Series [5] addresses T3, Her2-ECD-Fc fusion protein (Homo sapiens, UniProt P04626).
T3 construct: three rounds of panning against a recombinant Her2 protein ectodomain; purchased R&D systems
Briefly: Phage ELISA screening of clones panned against Her2-ECD-Fc. Format: binding. The settings on record: five unique clones after third round of biopanning. The method, then: A naïve human Fab phage display library (a total of about […] members), constructed from peripheral blood B cells of 10 healthy donors, was used for selection of Fabs against Her2-ECD-Fc fusion protein (R&D systems) conjugated to magnetic beads (DYNABEADS™ M-270 epoxy, Invitrogen). […] After each round of incubation, the beads were washed 5 times for the first round and 15 times for the later rounds with phosphate-buffered saline containing 0.05% Tween 20 (PBST) to remove nonspecifically bound phage. The bead-bound phage were mixed with TG1 cells for 1 hour at 37° C., and the phage was amplified from the infected cells and used in the next round of biopanning. After the third round of biopanning, 190 clones were randomly picked and monoclonal phage was prepared and used for phage ELISA screening to identify the positive binders. […] The nucleotide and amino acid sequences of the m860 VH and VL domains are set forth herein as SEQ ID NOs: 1-4.

Chain of FcγRI (CD64) (P12314 16-374, species assumed): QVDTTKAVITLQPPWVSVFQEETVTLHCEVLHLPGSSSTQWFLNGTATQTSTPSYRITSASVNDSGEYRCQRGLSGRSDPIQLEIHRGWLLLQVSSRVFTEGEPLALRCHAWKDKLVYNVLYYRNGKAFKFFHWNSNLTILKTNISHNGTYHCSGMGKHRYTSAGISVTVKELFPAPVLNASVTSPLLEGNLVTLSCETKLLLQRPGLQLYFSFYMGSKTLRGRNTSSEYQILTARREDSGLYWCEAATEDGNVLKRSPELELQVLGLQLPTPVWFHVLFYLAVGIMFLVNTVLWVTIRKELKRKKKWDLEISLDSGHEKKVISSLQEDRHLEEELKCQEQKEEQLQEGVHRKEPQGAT
Method for Her2 on SKBR3 cells: SKBR3 breast cancer cells, which overexpress Her2, were detached in cell dissociation buffer and rinsed in PBS. […] Unbound antibodies were washed away with PBSA. The secondary antibody, goat anti-human IgG conjugated with PE (Sigma), was diluted at 1:100 and incubated with cells on ice for 30 minutes. Cells were washed and resuspended in PBSA buffer for flow cytometry analysis on FACSCalibur (Becton Dickinson).

For the molecule `CC[C@H](C)[C@@H]([C@@H](CC(=O)N1CCC[C@H]1[C@H](OC)[C@@H](C)C(=O)N[C@@H](Cc1ccccc1)C(=O)NCCOCCOCCON)OC)N(C)C(=O)C(NC(=O)[C@H](C(C)C)N(C)C)C(C)C` (stereo partly shown) [nAF, Auristatin F with a non-cleavable linker attached at the C-terminus] (NMe2Val-[ξV][Dil][Dolaproine]F-X1), the cytotoxicity entry in [1] is recorded as “significant cytotoxicity”.

B1: M860 IgG1: Her2-specific human monoclonal antibody from naïve phage display Fab library, VH SEQ ID NO: 2, VL SEQ ID NO: 4, converted to full size human IgG1 (antibody, V domains shown)
VH: EVQLVQSGAEVKKPGESLKISCKGSGYSFTSYWIGWVRQMPGKGLEWMGIIYPGDCDRSDTRYSPSFQGQVTISADKSISTAYLQWSSLKASDTAMYYCARQYSGYDRYYFDYWGQGTLVTVSS
VL: QTVVTQEPSFSVSPGGTVTLTCGLNSGSVSTRHYPSWYQQTPGQAPRTLIYSTDICDRRSSGAPSHISGSILGNKAALTITGAQADDASDYYCALYLGNGIAVFGSGTKVTVLG
modifications: IgG1 constant regions without entry
In the series with FcγRI (CD64), B1 returned a Kd of 22.5 nM, a ka of 44790 M⁻¹ s⁻¹ and a kd of 0.001007 s⁻¹. Moreover, at FcγRIII (CD16), binding was characterised by a dissociation constant (Kd) of 1500 nM, the ka was determined as 11080 M⁻¹ s⁻¹ and the kd was found to be 0.01608 s⁻¹. In addition, in the series with Her2 on SKBR3 cells, the “binding activity to Her2 on SKBR3 cells before and after nAF conjugation” value is given as “not impacted by nAF conjugation”. In series [2], the cytotoxicity result is recorded as “did not exhibit any cytotoxicity; also recorded: did not show any cytotoxicity”. For the same molecule, the cytotoxicity entry in [3] is given as “little effect”. Also, the “affinity for cell surface-associated Her2” value in series [4] is on record as “comparable to that of trastuzumab”. For the same molecule, the “competition with Herceptin / epitope relative to trastuzumab” value in the series with Her2 is “binds to a different epitope”. The “binding activity in phage ELISA screening” value in series [5] is listed as “highest binding activity”.
